{"source": "patent US20150203577A1", "about": "(Chugai, published 2015)", "binders": {"B1": {"name": "H237-MB722/MRAL-k0 (antibody)", "heavy": "QVQLQESGPGLVKPSETLSLTCAVSGHSISHDHAWSWVRQPPGEGLEWIGFISYSGITNYNPSLQGRVTISRDNSKNTLYLQMNSLRAEDTAVYYCARSLARTTAMDYWGEGTLVTVSSAKTTPPSVYPLAPGSAAQTNSMVTLGCLVKGYFPEPVTVTWNSGSLSSGVHTFPAVLQSDLYTLSSSVTVPSSTWPSETVTCNVAHPASSTKVDKKIVPRDCGCKPCICEAYEEEDVFIFPPKPKDVLTITLTPKVTCVVVDISKDDPEVQFSWFVDDVEVHTAQTQPREEQFNSTFRSVSELPIMHQDWLNGKEFKCRVNSAAFPAPIEKTISKTKGRPKAPQVYTIPPPKEQMAKDKVSLTCMITDFFPEDITVEWQWNGQPAENYKNTQPIMDTDGSYFVYSKLNVQKSNWEAGNTFTCSVLHEGLHNHHTEKSLSHSPGK", "light": "not shown", "notes": "copies: 2 + 2"}, "B2": {"name": "H237-MB865/MRAL-k0 (antibody, mouse IgG1, kappa)", "heavy": "B1 heavy with A230P, Y231N, E233V, D235L, K264D, Q291L, A322D, A323G", "light": "not shown", "notes": "copies: 2 + 2"}, "B3": {"name": "H237-MB861/MRAL-k0 (antibody, mouse IgG1, kappa)", "heavy": "B1 heavy with A230P, Y231N, E233V, D235L, K264D, N320D, A322D, A323G", "light": "not shown", "notes": "copies: 2 + 2"}, "B4": {"name": "H237-MB855/MRAL-k0 (antibody, mouse IgG1, kappa)", "heavy": "B1 heavy with A230P, Y231N, E233V, D235L, Q291L, A322D, A323G, K330R", "light": "not shown", "notes": "copies: 2 + 2"}, "B5": {"name": "H237-MB853/MRAL-k0 (antibody, mouse IgG1, kappa)", "heavy": "B1 heavy with A230P, Y231N, E233V, D235L, Q291L, A322D, A323G, P327Y", "light": "not shown", "notes": "copies: 2 + 2"}, "B6": {"name": "H237-MB719/MRAL-k0 (antibody, mouse IgG1, kappa)", "heavy": "B1 heavy with A230P, Y231N, E233V, D235Q", "light": "not shown", "notes": "copies: 2 + 2"}, "B7": {"name": "H237-MB723/MRAL-k0 (antibody, mouse IgG1, kappa)", "heavy": "B1 heavy with A230D", "light": "not shown", "notes": "copies: 2 + 2"}, "B8": {"name": "H237-MB864/MRAL-k0 (antibody, mouse IgG1, kappa)", "heavy": "B1 heavy with A230P, Y231N, E233V, D235L, K264D, A322D, A323G, K330R", "light": "not shown", "notes": "'8239L' in r313c2 read as S239L; copies: 2 + 2"}, "B9": {"name": "H237-MB093/MRAL-k0 (antibody, mouse IgG1, kappa)", "heavy": "B1 heavy with E229T, A230V, Y231P, E233V, D235S", "light": "not shown", "notes": "copies: 2 + 2"}, "B10": {"name": "H237-MB125/MRAL-k0 (antibody, mouse IgG1, kappa)", "heavy": "B1 heavy with E229T, A230V, Y231P, E233V, E234S, D235W", "light": "not shown", "notes": "copies: 2 + 2"}, "B11": {"name": "H237-MB092/MRAL-k0 (antibody, mouse IgG1, kappa)", "heavy": "B1 heavy with E229T, A230V, Y231P, E233V, E234D, D235S", "light": "not shown", "notes": "copies: 2 + 2"}, "B12": {"name": "H237-MB112/MRAL-k0 (antibody, mouse IgG1, kappa)", "heavy": "B1 heavy with E229T, A230V, Y231P, E233V, E234S, D235F", "light": "not shown", "notes": "copies: 2 + 2"}, "B13": {"name": "H237-MB146/MRAL-k0 (antibody, mouse IgG1, kappa)", "heavy": "B1 heavy with E229T, A230V, Y231P, E233V, E234S, D235S, F237D", "light": "not shown", "notes": "copies: 2 + 2"}, "B14": {"name": "H237-MB075/MRAL-k0 (antibody, mouse IgG1, kappa)", "heavy": "B1 heavy with E229T, A230V, Y231P, E234S, D235S", "light": "not shown", "notes": "copies: 2 + 2"}}, "note": "Numbering of substitutions follows the chain as printed. Numbers in names are those of the source.", "data": [{"biological_target": "T1, mouse FcγRIII (mouse, UniProt P08508 31-215)", "T1 construct": "Extracellular domain with C-terminal His tag, made in FreeStyle 293 cells; also called mFcγRIII; mFcgRIII", "T1 chain": "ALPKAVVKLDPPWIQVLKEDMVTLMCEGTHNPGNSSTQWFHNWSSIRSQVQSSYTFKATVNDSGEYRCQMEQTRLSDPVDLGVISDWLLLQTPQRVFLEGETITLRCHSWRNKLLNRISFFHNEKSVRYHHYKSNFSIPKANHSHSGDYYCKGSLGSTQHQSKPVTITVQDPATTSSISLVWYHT", "test": "SPR (Biacore), antibody captured on Protein L", "units": {"Kd": "nM"}, "values": [{"binder": "B1", "Kd": 341}, {"binder": "B2", "Kd": 84.4}, {"binder": "B3", "Kd": 117}, {"binder": "B4", "Kd": 248}, {"binder": "B5", "Kd": 249}, {"binder": "B6", "Kd": 122}, {"binder": "B7", "Kd": 645}, {"binder": "B8", "Kd": 77.6}]}, {"biological_target": "T2, mouse FcγRII (mouse, UniProt P08101 30-210)", "T2 construct": "Extracellular domain with C-terminal His tag, made in FreeStyle 293 cells; also called mFcγRII; mFcgRII", "T2 sequence": "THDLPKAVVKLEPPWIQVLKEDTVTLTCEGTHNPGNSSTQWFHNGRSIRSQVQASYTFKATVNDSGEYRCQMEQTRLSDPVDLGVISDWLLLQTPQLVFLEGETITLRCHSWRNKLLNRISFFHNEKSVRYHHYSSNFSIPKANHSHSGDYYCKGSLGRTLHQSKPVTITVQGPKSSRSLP", "test": "SPR (Biacore), antibody captured on Protein L", "units": {"Kd": "nM"}, "values": [{"binder": "B1", "Kd": 8.04}, {"binder": "B2", "Kd": 2.51}, {"binder": "B3", "Kd": 2.74}, {"binder": "B4", "Kd": 5.81}, {"binder": "B5", "Kd": 5.99}, {"binder": "B6", "Kd": 2.98}, {"binder": "B7", "Kd": 19}, {"binder": "B8", "Kd": 1.9}]}, {"biological_target": "T3, mouse FcγRII extracellular domain, C-terminal His tag (mouse, UniProt P08101 30-210)", "T3 construct": "Whole entry named; also called mFcγRII; mFcgRII", "T3 sequence": "T2 sequence", "test": "SPR (Biacore T200); KD of H237-mIgG1/MRAL-k0 / KD of variant", "units": {"relative mFcγRII-binding activity (mIgG1 = 1)": "fold"}, "values": [{"binder": "B9", "relative mFcγRII-binding activity (mIgG1 = 1)": 2.48}, {"binder": "B10", "relative mFcγRII-binding activity (mIgG1 = 1)": 0.81}, {"binder": "B11", "relative mFcγRII-binding activity (mIgG1 = 1)": 0.16}, {"binder": "B12", "relative mFcγRII-binding activity (mIgG1 = 1)": 0.47}, {"binder": "B13", "relative mFcγRII-binding activity (mIgG1 = 1)": 0.85}, {"binder": "B14", "relative mFcγRII-binding activity (mIgG1 = 1)": 0.12}]}, {"biological_target": "T4, mouse FcγRIII extracellular domain, C-terminal His tag (mouse, UniProt P08508 31-215)", "T4 construct": "Whole entry named; also called mFcγRIII; mFcgRIII", "T4 chain": "T1 chain", "test": "SPR (Biacore T200); KD of H237-mIgG1/MRAL-k0 / KD of variant", "units": {"relative mFcγRIII-binding activity (mIgG1 = 1)": "fold"}, "values": [{"binder": "B9", "relative mFcγRIII-binding activity (mIgG1 = 1)": 0.61}, {"binder": "B10", "relative mFcγRIII-binding activity (mIgG1 = 1)": 0.48}, {"binder": "B11", "relative mFcγRIII-binding activity (mIgG1 = 1)": 0.05}, {"binder": "B12", "relative mFcγRIII-binding activity (mIgG1 = 1)": 0.27}, {"binder": "B13", "relative mFcγRIII-binding activity (mIgG1 = 1)": 0.21}, {"binder": "B14", "relative mFcγRIII-binding activity (mIgG1 = 1)": 0.07}]}, {"biological_target": "T1, mouse FcγRIII", "test": "SPR (Biacore), KD of H237-mIgG1/MRAL-k0 / KD of variant", "experimental": "(§1) Each altered antibody was analyzed for its interaction with each Fcγ receptor prepared above using Biacore T100 (GE Healthcare Japan Corp.), Biacore T200 (GE Healthcare Japan Corp.), Biacore A100, or Biacore 4000. The running buffer used was HBS-EP+ (GE Healthcare Japan Corp.). The assay temperature was set to 25° C. The sensor chips used were chips prepared by immobilizing Protein L (ACTIGEN or BioVision) onto Series S Sensor Chip CM5 (GE Healthcare Japan Corp.) or Series S Sensor Chip CM4 (GE Healthcare Japan Corp.) by the amine coupling method.\n(§2) In order to calculate the KD value of each altered antibody for FcγR, kinetic analysis was conducted according to the following method: first, the antibody of interest was captured onto any of these chips and allowed to interact with mFcγR diluted with a running buffer. For the obtained sensorgram, the assay results were globally fit into the 1:1 Langmuir binding model using Biacore Evaluation Software to calculate an association rate constant ka (L/mol/s) and a dissociation rate constant kd (1/s). From these values, the dissociation constant KD (mol/L) was calculated.", "units": {"relative mFcγRIII-binding activity (mIgG1 = 1)": "fold"}, "values": [{"binder": "B1", "relative mFcγRIII-binding activity (mIgG1 = 1)": 0.8}, {"binder": "B2", "relative mFcγRIII-binding activity (mIgG1 = 1)": 3.3}, {"binder": "B3", "relative mFcγRIII-binding activity (mIgG1 = 1)": 2.4}, {"binder": "B4", "relative mFcγRIII-binding activity (mIgG1 = 1)": 1.1}, {"binder": "B5", "relative mFcγRIII-binding activity (mIgG1 = 1)": 1.1}, {"binder": "B6", "relative mFcγRIII-binding activity (mIgG1 = 1)": 2.3}, {"binder": "B7", "relative mFcγRIII-binding activity (mIgG1 = 1)": 0.4}, {"binder": "B8", "relative mFcγRIII-binding activity (mIgG1 = 1)": 3.6}]}, {"biological_target": "T2, mouse FcγRII", "test": "SPR (Biacore), KD of H237-mIgG1/MRAL-k0 / KD of variant", "experimental": "as §1, §2", "units": {"relative mFcγRII-binding activity (mIgG1 = 1)": "fold"}, "values": [{"binder": "B1", "relative mFcγRII-binding activity (mIgG1 = 1)": 26.1}, {"binder": "B2", "relative mFcγRII-binding activity (mIgG1 = 1)": 83.8}, {"binder": "B3", "relative mFcγRII-binding activity (mIgG1 = 1)": 76.8}, {"binder": "B4", "relative mFcγRII-binding activity (mIgG1 = 1)": 36.2}, {"binder": "B5", "relative mFcγRII-binding activity (mIgG1 = 1)": 35}, {"binder": "B6", "relative mFcγRII-binding activity (mIgG1 = 1)": 70.4}, {"binder": "B7", "relative mFcγRII-binding activity (mIgG1 = 1)": 11}, {"binder": "B8", "relative mFcγRII-binding activity (mIgG1 = 1)": 110}]}]}
